# Measured values published in patent publication US20090324646A1 (INSTITUT PASTEUR, published 2009).
# Where two headings read alike, the source gives them in different places.
# B1: NF-κB p50 (endogenous, Caco 2 nuclear extracts) (other)
# chain: MAEDDPYLGRPEQMFHLDPSLTHTIFNPEVFQPQMALPTDGPYLQILEQPKQRGFRFRYVCEGPSHGGLPGASSEKNKKSYPQVKICNYVGPAKVIVQLVTNGKNIHLHAHSLVGKHCEDGICTVTAGPKDMVVGFANLGILHVTKKKVFETLEARMTEACIRGYNPGLLVHPDLAYLQAEGGGDRQLGDREKELIRQAALQQTKEMDLSVVRLMFTAFLPDSTGSFTRRLEPVVSDAIYDSKAPNASNLKIVRMDRTAGCVTGGEEIYLLCDKVQKDDIQIRFYEEEENGGVWEGFGDFSPTDVHRQFAIVFKTPKYKDINITKPASVFVQLRRKSDLETSEPKPFLYYPEIKDKEEVQRKRQKLMPNFSDSFGGGSGAGAGGGGMFGSGGGGGGTGSTGPGYSFPHYGFPTYGGITFHPGTTKSNAGMKHG
# B2: OspF phosphatase (purified recombinant protein) (protein)
# chain: MPIKKPCLKLNLDSLNVVRSEIPQMLSANERLKNNFNILYNQIRQYPAYYFKVASNVPTYSDICQSFSVMYQGFQIVNHSGDVFIHACRENPQSKGDFVGDKFHISIAREQVPLAFQILSGLLFSEDSPIDKWKITDMNRVSQQSRVGIGAQFTLYVKSDQECSQYSALLLHKIRQFIMCLESNLLRSKIAPGEYPASDVRPEDWKYVSYRNELRSDRDGSERQEQMLREEPFYRLMIE
# B3: MKP1 (mammalian dual specific phosphatase, Upstate Cell Signaling) (enzyme, UniProt P28562 1-367, looked up, species assumed)
# Dual specificity protein phosphatase 1: MVMEVGTLDAGGLRALLGERAAQCLLLDCRSFFAFNAGHIAGSVNVRFSTIVRRRAKGAMGLEHIVPNAELRGRLLAGAYHAVVLLDERSAALDGAKRDGTLALAAGALCREARAAQVFFLKGGYEAFSASCPELCSKQSTPMGLSLPLSTSVPDSAESGCSSCSTPLYDQGGPVEILPFLYLGSAYHASRKDMLDALGITALINVSANCPNHFEGHYQYKSIPVEDNHKADISSWFNEAIDFIDSIKNAGGRVFVHCQAGISRSATICLAYLMRTNRVKLDEAFEFVKQRRSIISPNFSFMGQLLQFESQVLAPHCSAEAGSPAMAVLDRGTSTTTVFNFPVSIPVHSTNSALSYLQSPITTSPSC
# B4: lambda phosphatase (protein)
# chain: MRYYEKIDGSKYRNIWVVGDLHGCYTNLMNKLDTIGFDNKKDLLISVGDLVDRGAENVECLELITFPWFRAVRGNHEQMMIDGLSERGNVNHWLLNGGGWFFNLDYDKEILAKALAHKADELPLIIELVSKDKKYVICHADYPFDEYEFGKPVDHQQVIWNRERISNSQNGIVKEIKGADTFIFGHTPAVKPLKFANQMYIDTGAVFCGNLTLIQVQGEGA
# How the values were obtained:
# [1] = biological target: NF-κB p65 (endogenous, Caco 2 nuclear extracts) (human, UniProt Q04206 1-551); assay: supershift EMSA of Caco 2 nuclear extracts with anti-p50 and anti-p65 antibodies
# [2] = biological target: 33P-labeled Erk2 (GST-Erk2 fusion protein phosphorylated in vitro by MEK1)
# [3] = biological target: histone H3 purified from calf thymus, P68432
# [4] = biological target: peptide mimicking the histone H3 tail carrying pS10 modification
# [5] = test system: 33P-labeled Erk2 (GST-Erk2 fusion protein phosphorylated in vitro by MEK1); remark: listed apart in the source
# Chain of NF-κB p65 (endogenous, Caco 2 nuclear extracts) (Q04206 whole entry, the tested form may be a part): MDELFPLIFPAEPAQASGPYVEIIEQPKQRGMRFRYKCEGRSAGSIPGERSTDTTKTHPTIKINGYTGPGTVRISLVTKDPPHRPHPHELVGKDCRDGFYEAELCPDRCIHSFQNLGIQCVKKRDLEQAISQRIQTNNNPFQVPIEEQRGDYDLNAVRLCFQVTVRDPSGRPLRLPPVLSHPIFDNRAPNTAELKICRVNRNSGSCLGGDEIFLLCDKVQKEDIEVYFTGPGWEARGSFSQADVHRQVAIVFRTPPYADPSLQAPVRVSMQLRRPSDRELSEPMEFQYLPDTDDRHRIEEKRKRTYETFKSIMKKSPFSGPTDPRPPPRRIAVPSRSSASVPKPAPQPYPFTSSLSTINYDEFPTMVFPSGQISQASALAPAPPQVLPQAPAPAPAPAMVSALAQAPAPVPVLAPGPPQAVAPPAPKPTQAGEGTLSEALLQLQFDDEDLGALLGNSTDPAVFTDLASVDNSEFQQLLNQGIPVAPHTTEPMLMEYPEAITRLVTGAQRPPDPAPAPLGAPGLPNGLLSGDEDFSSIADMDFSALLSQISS
binder,measurement,setting,value
B1,binding result,[1],binds
B2,Km,[2],0.204 µM
same,Vmax,[2],9.89 pM/s
same,"dephosphorylation of 33P-labeled Erk2 (gel mobility in SDS-PAGE/autoradiography, Western blot)",[2],Dephosphorylation of Erk2 by both enzymes was confirmed
same,kcat,[2],0.0001 s⁻¹
same,"in vitro dephosphorylation (Western blot, anti-metK9-pS10 antibody)",[3],"OspF did not directly dephosphorylate these substrates, even when the enzyme concentration was increased 100 fold"
same,in vitro dephosphorylation of peptide,[4],"OspF did not directly dephosphorylate these substrates, even when the enzyme concentration was increased 100 fold"
B3,Km,[5],0.229 µM
same,Vmax,[5],6.01 pM/s
same,"dephosphorylation of 33P-labeled Erk2 (gel mobility in SDS-PAGE/autoradiography, Western blot)",[5],Dephosphorylation of Erk2 by both enzymes was confirmed
same,kcat,[5],0.0006 s⁻¹
B4,"in vitro dephosphorylation (Western blot, anti-metK9-pS10 antibody)",[3],"in contrast to the lambda phosphatase, OspF did not directly dephosphorylate these substrates"
same,in vitro dephosphorylation of peptide,[4],"in contrast to the lambda phosphatase, OspF did not directly dephosphorylate these substrates"
